The values below come from the supplement of paper PMC10724198.

± gives the standard deviation of the averaged measurements.

The test system of data set [1] is Saccharomyces cerevisiae. Description: protein stability index of tFT-peptide fusion in wild type (PSI (0-1 scale)); higher = more stable (slower turnover). The conditions noted are these: genetic background: wild type.
Data set [2] concerns Saccharomyces cerevisiae. In words: protein stability index of tFT-peptide fusion in deletion strain of DOA10 (PSI (0-1 scale)); higher = more stable (slower turnover). Here is the method: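 MPS profiling in S. cerevisiae of two library types built from selected 12-aa C-degron peptides (IN1, IN2, LN1, LN3, VN2, R1-R5, W1-W3, Atg1 and Rpa12 C-termini): saturation mutagenesis libraries and C-terminal +1 capping libraries (13 aa). Each peptide is fused to the C-terminus of a sfGFP-mCherry timer, after a GGGS linker. Cells are FACS-sorted into 8 mCherry/sfGFP bins and sequenced. PSI runs from 0 (unstable) to 1 (stable), measured once in wild type and in the das1Δ or doa10Δ background.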

Data set [3] has as its system Saccharomyces cerevisiae. In words: protein stability index of tFT-peptide fusion (C-terminal peptide) (PSI (0-1 scale)); higher = more stable (slower turnover). How it is done:
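MPS profiling in S. cerevisiae of the tFT-X12 degron library: putative degron peptides plus stable controls, 12 aa, fused to the C-terminus of a sfGFP-mCherry timer. Cells are FACS-sorted into 8 mCherry/sfGFP bins and deep-sequenced. PSI runs from 0 (unstable) to 1 (stable). Backgrounds are wild type, das1Δ and doa10Δ at 30 °C, and wild type, das1Δ, cdc34-1 and cdc53-1 at 37 °C; 2-3 technical replicates each.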

Data set [4] concerns Saccharomyces cerevisiae. The description is as above. The settings on record: genetic background: wild type; temperature: 30 C.
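Wherever protein stability index of tFT-peptide fusion (C-terminal peptide) is given: PSI is a weighted mean of sequencing reads over stability bins, variants kept only with over 10 reads, mCherry proximal and sfGFP distal, peptide attached via GGGS linker.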
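Wherever protein stability index of tFT-peptide fusion in deletion strain of DOA10 is given: PSI per variant is the weighted mean of its sequencing read distribution over the sorted stability bins, counting only variants with over 10 reads summed across bins.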
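Wherever protein stability index of tFT-peptide fusion in wild type is given: PSI derived as read-weighted mean over the 8 sorting bins, only variants exceeding 10 total reads kept, mCherry placed adjacent to the peptide and sfGFP distal.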

Take RSLRVLYPLYFR: the protein stability index was 0.279 in data set [1] and 0.67 in data set [2].
On the same counts, the results for RSLRVYLPLYFR are 0.268 and 0.678.
Turning to RSLRWLLPLYFR, the protein stability index in data set [1] came to 0.427; in data set [2], 0.642.
Consider RSLRYLLPLYFR, for which the protein stability index in data set [1] came to 0.378; in data set [2], 0.671.
Regarding RVPRLDAIYFRI, the values for the protein stability index in data set [1] and in data set [2] were 0.389 and 0.669, respectively.
Turning to RVTDLDAIYFRI, the protein stability index was 0.636 in data set [1] and 0.678 in data set [2].
On to RVTLLDAIYFRI, for which the protein stability index in data set [1] worked out at 0.455; in data set [2] it was 0.662.
RVTRGDAIYFRI: the protein stability index turned out to be 0.553 in data set [1] and 0.693 in data set [2].
For the sequence RVTRKDAIYFRI, the protein stability index was 0.564 in data set [1] and 0.664 in data set [2].
On the same counts, the results for RVTRLDAGYFRI are 0.673 and 0.702.
For RVTRLDAIKFRI, the protein stability index in data set [1] amounted to 0.66; in data set [2], 0.685.
The like results for RVTRLDAISFRI were, in that order, 0.691 and 0.727.
Turning to RVTRLDAIWFRI, the protein stability index is 0.22 in data set [1] and 0.676 in data set [2].
On the same counts, the results for RVTRLDAIYFQI are 0.292 and 0.305.
RVTRLDAIYFRI: the protein stability index in data set [3] (genetic background: cdc34-1, temperature: 37 C) stood at 0.265 ± 0.06; in data set [3] (genetic background: cdc53-1, temperature: 37 C), 0.198 ± 0.0072; in data set [3] (genetic background: das1 deletion, temperature: 30 C), 0.341 ± 0.031; in data set [3] (genetic background: das1 deletion, temperature: 37 C) it was 0.351 ± 0.012; in data set [3] (genetic background: doa10 deletion, temperature: 30 C), 0.717 ± 0.03; in data set [3] (genetic background: wild type, temperature: 30 C), 0.312 ± 0.014. The protein stability index in data set [3] (genetic background: wild type, temperature: 37 C) worked out at 0.323 ± 0.0054; in data set [1], 0.328; in data set [4], 0.381 ± 0.019; in data set [2], 0.681.
Consider RVTRLDAIYFRIW, for which the protein stability index came to 0.234 in data set [1] and 0.577 in data set [2].
For RVTRLDAIYFRL, the figures for the protein stability index in data set [1] and in data set [2] were 0.395 and 0.7, respectively.
On the same counts, the results for RVTRLDAIYFRQ are 0.533 and 0.589.
The like results for RVTRLDAIYPRI were, in that order, 0.693 and 0.731.
Turning to RVTRLDAVYFRI, the protein stability index worked out at 0.442 in data set [1] and 0.68 in data set [2].
In the case of RVTRLDAWYFRI, the protein stability index in data set [1] is 0.678; in data set [2], 0.717.
RVTRLDKIYFRI: the protein stability index in data set [1] worked out at 0.283; in data set [2] it was 0.51.
In the case of RVTRLMAIYFRI, the protein stability index in data set [1] came to 0.155; in data set [2], 0.295.
On the same counts, the results for RVTRSDAIYFRI are 0.525 and 0.695.
For the sequence RWLRVLLPLYFR, the protein stability index turned out to be 0.402 in data set [1] and 0.682 in data set [2].
The like results for WLYMCSVGCWFR were, in that order, 0.302 and 0.633.
